# Results from patent US20210009686A1 (BEIJING XUANYI PHARMASCIENCES, published 2021).
# Where a chain is given by its changes, count along the chain named.
# B1: chimeric Ab 4-N1-A (antibody, V domains shown)
# VH: EVQLVNSGGGLVKPGGSRKLSCAASGFTFSDYGMHWVRQAPEKGLEWVAYISSGSSTIYYADTMKGRFTISRDNAKNTLFLQMTSLRSEDTAMYYCARFVRGNSMDYWGQGTSVTVSS
# VL: DIVMTQSPSSLTVTAGEKVTMSCKSSQSLLNSGNQKNYLTWYQQKPGQPPKLLIYWASTRESGVPDRFTGSGSGTDFTLTISSVQAEDLTVYYCQNAYSYPLTFGAGTKLELK
# B2: chimeric Ab 5-J22-A (antibody, V domains shown)
# VH: B1 VH with N6E, Y50H, S56N, T57I, Y59H, M64L, V100A, S104T
# VL: B1 VL with Y100F
# notes: also called 5-22-A
# B3: hybridoma clone 10-P12-A (antibody, V domains shown)
# VH: EIQLQQSGAELVKPGTSVKISCKASGYSFTGYNMNWVKQSHGKSLEWIGNINPYYSNTNYNQRFKGKATLTVDKSSSTAYMQLNSLTSEDSAVYYCARHVRGNSFDYWGQGTTLTVSS
# VL: DIVMTQSPSSLTVTAGERVTVGCKSRQSLFNSENQKNYLSWYQQKPGQPPKLLLYWTSTRESGVPERFTGSGSGTDFTLTISSVQAEDLAVYYCQNNYIYPFTFGSGTKLEIK
# B4: hybridoma clone 5-K4-B (antibody, V domains shown)
# VH: EVQLQQSGPELVKPGASVKMSCKASGYTFISYLIHWVKQKPGQGLEWIGYINPYNDGTKYNEKFKGKATLTSDKSSSTASMEFSSLTSEDSAVYYCTRGDFWGQGTTLTVSS
# VL: B1 VL with T59I, E61A, T90A, V91L, Q95L, A97D, Y100F
# notes: also called 5K41B
# B5: hybridoma clone 1-H16-A (antibody, V domains shown)
# VH: B1 VH with N6E, H35Y, Y50F, Y60C, M64V, F99I, V100A, S104A
# VL: B1 VL with K18R, Q35L, S83T, T90A, A97D, S99F
# B6: hybridoma clone 2-F13-A (antibody, V domains shown)
# VH: B4 VH with I30T, S31N, L33V, I34M, Y54F, N55D, S80Y, F83L, F101Y
# VL: B1 VL with S22T, E61D, T69R, T90A, Q95L, A97D, Y100F
# B7: hybridoma clone 7-G17-A (antibody, V domains shown)
# VH: B1 VH with N6E, A24V, H35Y, M64V, I70M, F99I, V100A, S104A
# VL: B1 VL with A15P, L30F, K36R, T40A, T90A, A97D, S99F
# B8: hybridoma clone 6-M11-A (antibody, V domains shown)
# VH: B1 VH with N6E, L11S, S56N, I58F, A61T, M64V, S85G, V100T, S104A, M105L
# VL: B1 VL with I54L
# B9: hybridoma clone 10-J10-B (antibody, V domains shown)
# VH: QVQLQQSGAELARPGASVKLSCKASGYTFTSWSISWVKQRTGQGLEWIGEIYPRSDNIHYNEKFKGKATLTADKSSSTVYMQLSSLTSEDSAVYFCARAYYGNSFAYWGQGTLVTVSA
# VL: B1 VL with S22T, S28I, T78S, T90A, V91I, A97D, S99Y, L102F, A106S, L112I
# B10: hybridoma 1-B13-A (antibody, V domains shown)
# VH: B9 VH with S31V, I34M, E46Q, R54K, D56G, I58T, S117P
# VL: DIVMTQSPSPLTVTAGEKATMSCKSSQSLLNSGNQRNYLTWYQQKPGQPPKLLIYWASTRESGVPDRFTGSGSGTDFSLTISSVQAEDLAVYYCQNDFIYPFTFGSGTKLEIK
# B11: hybridoma clone 9-M7-A (antibody, V domains shown)
# VH: EVQLVESGGALVKPGGSLKLSCAASGFTFSNYAMSWIRQTPEKRLEWVATIIIGGTYTYYPDSVKGRFTISRDNAKNTLYLQMSSLRSEDTALYYCARQVYGNSFAYWGQGTLVTVSA
# VL: B10 VL with P10S, A19V, R36K, S78T, D97N, F98Y
# B12: hybridoma clone 9-A13-B (antibody, V domains shown)
# VH: B1 VH with N6E, T28S, Y50H, V100A, S104T
# VL: B1 VL with A97G
# B13: hybridoma clone 2-D22-A (antibody, V domains shown)
# VH: EVQLVESGGGLVKPGGSRKLSCAASGFTFSDYGMHWVRQAPEKGLEWIAYISSGSSSIYYADTVKGRFTMSRDNAKKTLFLQTTSLRSEDTAMYYCARIARGNAMDYWGQGTSVTVTS
# VL: B1 VL with K36R, T40A, T90A, A97D
# B14: hybridoma clone 9-N14-A (antibody, V domains shown)
# VH: B13 VH with H35Y, I48L, S56N, S57N, M70I, K77N, T83M, T115I, T117S
# VL: B1 VL with T90A, A97D, S99I, E111G
# B15: hybridoma clone 10-K12-A (antibody, V domains shown)
# VH: B13 VH with H35F, I48V, A49G, S57N, M70I, K77N, T83M, T117S
# VL: B1 VL with T90A, V91I, A97D, S99F
# B16: hybridoma clone 7-E20-A (antibody, V domains shown)
# VH: B1 VH with N6E, Y59H, A61V, V100A, S104T, M105L
# VL: B1 VL with L30F, S32T, A97G
# B17: hybridoma clone 6-C5-A (antibody, V domains shown)
# VH: B1 VH with N6E, A97T, V100A, S104T
# VL: B1 VL with K36R, Q44R, V91F, A97G
# B18: hybridoma clone 7-A21-A (antibody, V domains shown)
# VH: B13 VH with H35Y, I48L, S56N, S57T, M70I, K77N, T83M, T117S
# VL: B1 VL with T90A, A97D, S99I, E111G
# B19: hybridoma clone 1-M5-A (antibody, V domains shown)
# VH: B11 VH with P14S, K19R, Y32N, L93F, T115S
# VL: B1 VL with T90A, A97N, S99F, L102F, A106S, L112I
# B20: hybridoma clone 7-B15-A (antibody, V domains shown)
# VH: B1 VH with N6E, V48I, Y50H, S104A, M105L
# VL: B1 VL with S22N, A97G
# B21: hybridoma clone 9-B11-A (antibody, V domains shown)
# VH: B1 VH with N6E, T57P, M64V, V100A, S104A
# VL: B1 VL with E61D, T90A, A97N, S99Y, K109N
# B22: hybridoma clone 5-J22-A (antibody, V domains shown)
# VH: B1 VH with N6E, Y50H, S56N, T57I, Y59H, M64L, V100A, S104T
# VL: B1 VL with Y100F
# B23: hybridoma clone 4-N1-A (antibody, V domains shown)
# VH: B1 VH
# VL: B1 VL
# B24: hybridoma clone 9-C6-A (antibody, V domains shown)
# VH: B1 VH with N6E
# VL: B1 VL with M21L, G47R, S83N
# B25: hybridoma clone 10-P2-A (antibody, V domains shown)
# VH: EVQLQQSGPALVKPGASVKMSCKASGYSFTGYNIHWVKQSHGKSLEWIGYIDPNNGVTYSNQKFKGKATLTVDKSSSTAYMQLNSLTSEDSAVYYCARPYYGNSFDYWGQGTTLTVSS
# VL: DIVMTQSPSSLTVTAGEKVTMSCKSSQSLLNSGNLRNYLTWYQQKPGQPPKLLIYWASTRESGVPDRFTGSGSGTDFTLTINSVQAEDLALYFCQDGYFYPFPFGSGTKLVIK
# B26: hybridoma clone 10-L9-A (antibody, V domains shown)
# VH: B1 VH with N6E, V48I, S52N, M64V, Y94F, V100A, S104V, M105L
# VL: B1 VL with K24R, K36R, Q48H, S83G, T90A, A97G, L112V
# Biological target: T1, claudin 18.2 (CLDN18.2) (human)
# T1 construct: also called Claudin 18 isotype 2; HEK293-CLDN18.2
# Assay: FACS, HEK293-CLDN18.2 cells
# Method: The interaction of 20 purified chimeric antibodies with CLDN18.2 was assessed by in-cell ELISAs and FACS using HEK293-CLDN18.2 cells. […] The FACS assays were performed as follows: Serial dilutions for each antibody clone shown in Tables 7 and 8 were prepared and stained with HEK293-CLDN18.2 cells on ice for 30 min, with final antibody concentrations of 10 g/ml, 3 g/ml, 1 g/ml, 0.3 μg/ml, 0.1 μg/ml, 0.03 μg/ml, 0.01 μg/ml, and 0 μg/ml. […] Cells were washed, and analyzed by FACS.
row,Binder,EC50
1,B1,0.029 µg/mL
2,B2,0.023 µg/mL

# Biological target: T2, claudin 18.1 (CLDN18.1) (human, UniProt P56856 1-261)
# T2 construct: also called HEK293-CLDN18.1
# Assay: FACS, hybridoma supernatant on HEK293-CLDN18.1
# From the text: (§1) Ten days after fusion, hybridoma supernatants were screened by FACS against HEK293-CLDN18.2, HEK293-CLDN18.1 and HEK293.
# T2 sequence (P56856 whole entry): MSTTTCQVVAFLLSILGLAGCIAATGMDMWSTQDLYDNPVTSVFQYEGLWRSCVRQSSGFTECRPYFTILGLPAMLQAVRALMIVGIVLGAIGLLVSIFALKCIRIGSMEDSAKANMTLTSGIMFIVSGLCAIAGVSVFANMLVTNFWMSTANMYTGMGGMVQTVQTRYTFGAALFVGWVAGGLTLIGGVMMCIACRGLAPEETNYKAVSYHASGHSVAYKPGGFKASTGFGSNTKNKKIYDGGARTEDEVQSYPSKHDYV
row,Binder,MFI
1,B3,20100
2,B4,126000
3,B5,28300
4,B6,232000
5,B7,12900
6,B8,8970
7,B9,20400
8,B10,10200
9,B11,7740
10,B12,6930
11,B13,6310
12,B14,10600
13,B15,7910
14,B16,7460
15,B17,8130
16,B18,6450
17,B19,7950
18,B20,11200
19,B21,7630
20,B22,6390
21,B23,12100
22,B24,9700
23,B25,10900

# Biological target: T1, claudin 18.2 (CLDN18.2)
# Assay: in-cell ELISA, hybridoma supernatant on HEK293-CLDN18.2 cells
# Method: (§2) In-cell ELISAs were performed as follows: 5×10³ HEK293-CLDN18.2 cells were seeded per well in a poly-L-lysine-coated 96-well plate. The plates were then incubated at 37° C. with 5% CO₂ for 2 days. Following incubation, culture media was removed from each well, and the HEK293-CLDN18.2 cells were blocked with 200 μl blocking buffer (3% BSA/PBS (pH 7.4)) per well for 1 hour at room temperature. Each hybridoma supernatant was incubated with cells at room temperature for 1 hour. Cells were gently washed 3 times with 200 μl PBS (pH 7.4) containing 1 mM Ca²⁺ and 0.5 mM Mg²⁺. Next, cells were incubated with 100 μl of HRP-conjugated goat anti-human IgG (H+L) antibody for 1 hour at room temperature. Following the incubation, the cells were washed three times with 200 μl PBS (pH 7.4) containing 1 mM Ca²⁺ and 0.5 mM Mg²⁺. 100 μl of 1-Step™ Ultra TMB-ELISA Substrate was added to each well, and the reactions were stopped by addition of 50 μl of stop solution. OD₄₅₀ was measured using CLARIOStar microplate reader. The in-cell ELISAs were repeated for each clone using HEK293-CLDN18.1 cells.
row,Binder,OD450/µg IgG
1,B3,29.4 OD450/µg IgG
2,B4,88.2 OD450/µg IgG
3,B5,14.2 OD450/µg IgG
4,B6,6.49 OD450/µg IgG
5,B7,30.8 OD450/µg IgG
6,B8,11.4 OD450/µg IgG
7,B9,102 OD450/µg IgG
8,B11,19.2 OD450/µg IgG
9,B12,48.6 OD450/µg IgG
10,B13,16.8 OD450/µg IgG
11,B14,34.4 OD450/µg IgG
12,B15,12.9 OD450/µg IgG
13,B16,20.4 OD450/µg IgG
14,B17,12.2 OD450/µg IgG
15,B18,18.4 OD450/µg IgG
16,B19,21.1 OD450/µg IgG
17,B20,13.2 OD450/µg IgG
18,B21,25.9 OD450/µg IgG
19,B22,15.4 OD450/µg IgG
20,B23,18 OD450/µg IgG
21,B24,28.3 OD450/µg IgG
22,B25,4.71 OD450/µg IgG
23,B26,9.52 OD450/µg IgG

# Biological target: T1, claudin 18.2 (CLDN18.2)
# Assay: in-cell ELISA, HEK293-CLDN18.2 cells
# Method: as §2
# The in-cell ELISAs were performed as described above. […] Cells were washed, and analyzed by FACS.
row,Binder,EC50
1,B1,0.059 µg/mL
2,B2,0.065 µg/mL

# Biological target: T1, claudin 18.2 (CLDN18.2)
# Assay: FACS, hybridoma supernatant on HEK293-CLDN18.2;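 note: flow cytometry of hybridoma supernatants taken 10 days after fusion, applied to HEK293 cells stably expressing CLDN18.2, with MFI standing for mean fluorescence intensity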
# From the text: as §1
row,Binder,MFI
1,B3,131000
2,B4,70800
3,B5,121000
4,B6,138000
5,B7,136000
6,B8,60500
7,B9,136000
8,B10,61900
9,B11,70300
10,B12,61400
11,B13,58300
12,B14,64000
13,B15,48900
14,B16,72600
15,B17,94700
16,B18,47000
17,B19,59200
18,B20,105000
19,B21,54100
20,B22,46100
21,B23,80100
22,B24,52400
23,B25,58900
24,B26,127000

# Biological target: T2, claudin 18.1 (CLDN18.1)
# Assay: in-cell ELISA, hybridoma supernatant on HEK293-CLDN18.1 cells
# Method: as §2
row,Binder,OD450/µg IgG
1,B3,4.3 OD450/µg IgG
2,B4,139 OD450/µg IgG
3,B5,1.05 OD450/µg IgG
4,B6,13.3 OD450/µg IgG
5,B7,6.7 OD450/µg IgG
6,B8,1.55 OD450/µg IgG
7,B9,3.05 OD450/µg IgG
8,B11,0.79 OD450/µg IgG
9,B12,3.34 OD450/µg IgG
10,B13,2.22 OD450/µg IgG
11,B14,3.14 OD450/µg IgG
12,B15,2.11 OD450/µg IgG
13,B16,2.23 OD450/µg IgG
14,B17,1.04 OD450/µg IgG
15,B18,2.51 OD450/µg IgG
16,B19,1.11 OD450/µg IgG
17,B20,1.32 OD450/µg IgG
18,B21,2.18 OD450/µg IgG
19,B22,2.16 OD450/µg IgG
20,B23,2.87 OD450/µg IgG
21,B24,3.82 OD450/µg IgG
22,B25,0.34 OD450/µg IgG
